Publication PMC10908828

Experiments:
[1] = target: human full-length RAF1 (residues 1-648) with C-terminal His6 (human) (UniProt P04049); experiment: mass photometry; purified RAF1-HSP90-CDC37 complex
[2] = target: insect HSP90 from Trichoplusia ni (Trichoplusia ni (endogenous in Tni-FNL cells)); experiment: mass photometry; purified RAF1-HSP90-CDC37 complex

stoichiometry N [1]: 2
stoichiometry N [2]: 2
Substance: insect HSP90 from Trichoplusia ni (natural protein)
